# Data from paper PMC4813479 (2015).
# Non-standard residues stand in square brackets, D forms with d. No end group written: not given here.
# Target: recombinant αIIbβ3 headpiece
# Test: FP
row,Kd,Binder
1,67.6 µM,AGDV-OMe [AGDV-OCH3 (O-methylated AGDV)]
2,50.9 µM,AGDV-NH2 [AGDV-NH2 (amidated AGDV)]
3,217 µM,AGD[dV] [AGD(v) (D-valine in place of L-valine)]
